Data from PMC7958378.

Biological target: GmPUB13(252-630) (soybean (Glycine max))
Assay: ITC

Kd: 89 nM
Substance: Avr1d (purified protein for ITC and gel filtration) (natural protein)
